The values below come from publication PMC9129911, “Electron Flow From the Inner Membrane Towards the Cell Exterior in Geobacter sulfurreducens: Biochemical Characterization of Cytochrome CbcL” (Frontiers in Microbiology, 2022).

In this assay the target is T1, triheme cytochrome PpcA from Geobacter sulfurreducens (Geobacter sulfurreducens, three heme groups).
T1 chain: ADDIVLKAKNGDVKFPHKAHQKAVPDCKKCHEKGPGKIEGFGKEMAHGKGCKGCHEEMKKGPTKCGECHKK
In words: NMR titration; 1D 1H NMR chemical shift perturbation; CbcL (800 uM stock) added to 50 uM PpcA, both oxidized, 10 mM sodium phosphate pH 8, in 2H2O, 25°C; shift of PpcA heme methyl 18^1CH3^I fitted to a one binding site model under fast exchange. The following applies: both partners purified.

B1: CbcL periplasmic domain (c- and b-type cytochrome for low potential) from Geobacter sulfurreducens (domain or fragment)
chain: IDPATCLGCHSNKISAAAFSASVHGKNACTSCHVEITDLTKHMKGEVKVEKVRCERCHKKENAEHYSSVHAQKDVRCADCHTDIHTHSYWNKDKRKVVAKCIQCHDKEAGYRNSIHGKGVAAGNMDSAACNDCHNLHDIKPLGDPKSKENREFHTKVCLKCHADEKMMERNNVFTVAVKTYMDSYHGKNYRLGFPEKVAGCADCHTAHGVLPAKDPNSSVNPQNLVATCAKCHPKATPLFTKFYSHGELG
modifications: nine c-type heme groups
Usually Kd stands for the concentration at which binding is half-saturated. With B1, the Kd stood at 57 ± 9 µM.
